The values below come from patent US6989362B1, “Methods of treating dopamine dysregulation using agents that regulate phosphorylation/dephosphorylation in dopamine signaling” (The Rockefeller University, priority 1999, dated 2006).

The test has as its target PKA (Homo sapiens, UniProt P17612). In words: Inhibition of PKA phosphorylation of substrates in vitro (kinetic analysis). In kind it is biochemical. How it is done:
Tissue was processed as described in the legend to FIGS. 1a-1e and immunoblotted for phospho-Thr75 (FIG. 2a), total DARPP-32 (FIG. 2b), or phospho-Thr34 (FIG. 2c). […] Purified DARPP-32 was phosphorylated to a stoichiometry of 0.93 mol/mol using native cdk1/cyclin B purified from sea star. Phospho-Thr75 DARPP-32 was precipitated from the reaction mixture with 5% TCA, resuspended in 1M Tris-HCl (pH 8.8), and dialyzed against 10 mM HEPES (pH 7.4). […] FIG. 2g depicts a Lineweaver-Burki kinetic analysis of PKA phosphorylation of ARPP-21 in the presence of 0 (◯), 5 (□), 10 (⋄), or 15 (Δ) μM Phospho-Thr75 DARPP-32.

B1: phospho-Thr75 DARPP-32: the phosphorylated form of Thr75 DARPP-32; inhibitor of PKA (protein, listed as Homo sapiens)
chain: MDPKDRKKIQFSVPAPPSQLDPRQVEMIRRRRPTPAMLFRLSEHSSPEEEASPHQRASGEGHHLKSKRPNPCAYTPPSLKAVQRIAESHLQSISNLNENQASEEEDELGELRELGYPREEDEEEEEDDEEEEEEEDSQAEVLKVIRQSAGQKTTRGLGLEGPWERPPPLDESERDGGSEDQVEDPALSEPGEEPQRPSPSEPGR
modifications: phosphorylated Thr75
For the molecule B1, the “rates of phosphorylation by PKA of inhibitor-1, ARPP-21, synapsin I and histone H1” value (15 μM phospho-Thr75 DARPP-32, purified catalytic subunit of PKA) was “dramatic reduction”. Further, under “ARPP-21 phosphorylation, 0-15 μM inhibitor”, the “mechanism of PKA inhibition” value is “linear competitive single site mechanism”.
